Patent US20080207488A1 (published 2008)
Ends that are not written are not given here.

B1: endostatin (EntreMed) (other, UniProt P39060 1572-1754, looked up)
chain: HSHRDFQPVLHLVALNSPLSGGMRGIRGADFQCFQQARAVGLAGTFRAFLSSRLQDLYSIVRRADRAAVPIVNLKDELLFPSWEALFSGSEGPLKPGARIFSFDGKDVLRHPTWPQKSVWHGSDPNGRRLTESYCETWRTEAPSATGQASSLLGGRLLGQSAASCHHAYIVLCIENSFMTASK
notes: also called protein therapeutic endostatin
B2: abciximab (ReoPro) (Fab, V domains shown)
VH: EVQLQQSGTVLARPGASVKMSCEASGYTFTNYWMHWVKQRPGQGLEWIGAIYPGNSDTSYIQKFKGKAKLTAVTSTTSVYMELSSLTNEDSAVYYCTLYDGYYVFAYWGQGTLVTVSA
VL: EIVLTQSPVTLSVTPGDSVSLSCRASRDISNNLHWFQQTSHESPRLLIKYASQSMSGIPSRFSGSGSGTDFTLSINSVETEDFGMYFCQQTNSWPYTFGGGTKLEIK
B3: tissue-type plasminogen activator (tPA) (enzyme, human, UniProt P00750 36-562, looked up)
chain: SYQVICRDEKTQMIYQQHQSWLRPVLRSNRVEYCWCNSGRAQCHSVPVKSCSEPRCFNGGTCQQALYFSDFVCQCPEGFAGKCCEIDTRATCYEDQGISYRGTWSTAESGAECTNWNSSALAQKPYSGRRPDAIRLGLGNHNYCRNPDRDSKPWCYVFKAGKYSSEFCSTPACSEGNSDCYFGNGSAYRGTHSLTESGASCLPWNSMILIGKVYTAQNPSAQALGLGKHNYCRNPDGDAKPWCHVLKNRRLTWEYCDVPSCSTCGLRQYSQPQFRIKGGLFADIASHPWQAAIFAKHRRSPGERFLCGGILISSCWILSAAHCFQERFPPHHLTVILGRTYRVVPGEEEQKFEVEKYIVHKEFDDDTYDNDIALLQLKSDSSRCAQESSVVRTVCLPPADLQLPDWTECELSGYGKHEALSPFYSERLKEAHVRLYPSSRCTSQHLLNRTVTDNMLCAGDTRSGGPQANLHDACQGDSGGPLVCLNDGRMTLVGIISWGLGCGQKDVPGVYTKVTNYLDWIRDNMRP
notes: Full-length recombinant tPA; also called Actilyse; Alteplase
B4: recombinant human β2-glycoprotein I (other, UniProt P02749 20-345, looked up)
chain: GRTCPKPDDLPFSTVVPLKTFYEPGEEITYSCKPGYVSRGGMRKFICPLTGLWPINTLKCTPRVCPFAGILENGAVRYTTFEYPNTISFSCNTGFYLNGADSAKCTEEGKWSPELPVCAPIICPPPSIPTFATLRVYKPSAGNNSLYRDTAVFECLPQHAMFGNDTITCTTHGNWTKLPECREVKCPFPSRPDNGFVNYPAKPTLYYKDKATFGCHDGYSLDGPEEIECTKLGNWSAMPSCKASCKVPVKKATVVYQGERVKIQEKFKNGMLHGDKVSFFCKNKEKKCSYTEDAQCIDGTIEVPKCFKEHSSLAFWKTDASDVKPC
notes: also called recombinant β2GPI; rec. β2GPI

Legend:
[1] = biological target: T1, fibronectin F4-5 domains with carboxy-terminal His6-tag, expressed in S. cerevisiae (Fn F4-5-His6) (human, UniProt P02751 182-276); assay: SPR (Biacore), Fn F4-5 on CM5 chip, concentration of ligand at half maximum binding
T1 construct: range 182-276; also called Fn F4-5 doublet
T1 sequence (P02751 other isoform, or with tags, fused parts or gaps limits assumed): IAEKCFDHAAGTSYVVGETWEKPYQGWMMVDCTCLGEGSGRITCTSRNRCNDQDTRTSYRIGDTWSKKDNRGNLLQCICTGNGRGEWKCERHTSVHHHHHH
Procedure: (§1) Now, the running buffer was 10 mM HEPES pH 7.4, 140 mM NaCl, 1.5 mM CaCl₂, 10 mM εACA, 0.05% Tween-20. Regeneration buffer was running buffer supplemented with 1 M NaCl.

[2] = biological target: B3; assay: ELISA, therapeutic coated, tPA concentration series, one-site binding fit
Procedure: (§2) Nunc Immobilizer plates (Nalge Nunc, #436013, Rochester, N.Y., USA) were coated with 50 μL containing 5 μg/mL of sample protein (unless indicated otherwise) in 100 mM NaHCO₃, pH 9.6, 0.05% m/v NaN₃ for 1 hour at room temperature. Plates were washed twice with Tris buffered saline pH 7.2 containing 0.1% Tween20 (TBST) and blocked with PBS containing 1% Tween20 for 1 hour at room temperature. […] Plates were washed five times with TBST and incubated with peroxidase labeled anti-mouse immunoglobulins (RAMPO; DAKOCytomation, Glostrup, Denmark) diluted 1:3000 in PBST for 30 minutes at room temperature. Plates were washed five times with PBS 0.1% Tween20, and stained with 100 μL/well of tetramethyl-benzidine (TMB) substrate (Biosource Europe, Nivelles, Belgium). The reaction was terminated with 50 μL/well of 2 M H₂SO₄ and substrate conversion was read at 450 nm on a Spectramax340 microplate reader. Curves were fitted with a one-site binding model (GraphPad Prism version 4.02 for Windows, Graphpad Software, CA, USA) from which Kd and Bmax were determined.

[3] = biological target: B3; assay: cell-based or functional assay
[4] = biological target: T2, advanced glycation end-product modified bovine serum albumin (albumin-AGE) (bovine, UniProt P02769 25-607, glycated (advanced glycation end-products; 1 M glucose-6-phosphate, 37 °C, up to 23 weeks); sites not stated); assay: SPR (Biacore), immobilized tPA
T2 construct: Misfolded, cross-β structure containing preparation; also called BSA-AGE; glycated BSA
T2 sequence (P02769 25-607 limits assumed): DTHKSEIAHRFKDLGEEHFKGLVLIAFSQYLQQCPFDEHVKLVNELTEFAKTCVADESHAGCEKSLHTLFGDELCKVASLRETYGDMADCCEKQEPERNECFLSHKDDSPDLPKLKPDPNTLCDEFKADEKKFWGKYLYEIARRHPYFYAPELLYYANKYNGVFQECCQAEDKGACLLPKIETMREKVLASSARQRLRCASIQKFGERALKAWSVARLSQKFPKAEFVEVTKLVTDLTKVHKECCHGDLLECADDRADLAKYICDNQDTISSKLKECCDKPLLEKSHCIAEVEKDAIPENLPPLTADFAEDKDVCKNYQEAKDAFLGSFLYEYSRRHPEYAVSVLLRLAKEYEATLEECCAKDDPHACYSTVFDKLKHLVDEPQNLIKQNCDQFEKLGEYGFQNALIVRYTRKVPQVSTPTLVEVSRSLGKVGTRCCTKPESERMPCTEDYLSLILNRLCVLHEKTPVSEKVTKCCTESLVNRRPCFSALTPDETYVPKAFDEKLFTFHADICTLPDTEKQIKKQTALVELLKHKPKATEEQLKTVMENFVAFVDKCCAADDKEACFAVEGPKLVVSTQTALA
Procedure: EDC, NHS and ethanolamine hydrochloride were obtained from Biacore. […] The flow rate was 10 μl min.⁻¹, the injection time was 120″. The running buffer during immobilization was 10 mM HEPES pH 7.4, 140 mM NaCl. Buffers were filtrated on a 0.22 μm filter (white GSWP, 47 mm, Millipore) and degassed at room temperature. For subsequent binding experiments, the running buffer was 10 mM HEPES pH 7.4, 140 mM NaCl, 1.5 mM CaCl₂, 10 mM εACA, 0.005% Tween-20. […] After each injection of protein, the chip was regenerated with 0.1 M H₃PO₄ pH 1.0.

[5] = biological target: T3, human albumin (Cealb) (human, UniProt P02768 25-609); assay: ELISA, therapeutic coated, tPA concentration series, one-site binding fit
T3 construct: mature
Procedure: as §2

[6] = biological target: T4, rapid acting human insulin analogue (NovoRapid Flexpen) (human, UniProt P01308 90-110; P01308 25-54); assay: as above
T4 construct: mature; also called Insulin Aspart; Novo Rapid insulin
Procedure: as §2

[7] = biological target: B2; assay: as above
Procedure: as §2

[8] = biological target: T5, recombinant human Zn2+-chelated insulin (Monotard) (human, UniProt P01308 90-110; P01308 25-54); assay: as above
T5 construct: mature; Zinc suspension; also called zinc-insulin; zinc-chelated insulin
Procedure: as §2

[9] = biological target: T6, factor XII purified from human plasma (human, UniProt P00748 20-615); assay: ELISA, factor XII coated, β2GPI concentration series, antibody 2B2
T6 construct: mature; also called FXII
T6 sequence (looked up): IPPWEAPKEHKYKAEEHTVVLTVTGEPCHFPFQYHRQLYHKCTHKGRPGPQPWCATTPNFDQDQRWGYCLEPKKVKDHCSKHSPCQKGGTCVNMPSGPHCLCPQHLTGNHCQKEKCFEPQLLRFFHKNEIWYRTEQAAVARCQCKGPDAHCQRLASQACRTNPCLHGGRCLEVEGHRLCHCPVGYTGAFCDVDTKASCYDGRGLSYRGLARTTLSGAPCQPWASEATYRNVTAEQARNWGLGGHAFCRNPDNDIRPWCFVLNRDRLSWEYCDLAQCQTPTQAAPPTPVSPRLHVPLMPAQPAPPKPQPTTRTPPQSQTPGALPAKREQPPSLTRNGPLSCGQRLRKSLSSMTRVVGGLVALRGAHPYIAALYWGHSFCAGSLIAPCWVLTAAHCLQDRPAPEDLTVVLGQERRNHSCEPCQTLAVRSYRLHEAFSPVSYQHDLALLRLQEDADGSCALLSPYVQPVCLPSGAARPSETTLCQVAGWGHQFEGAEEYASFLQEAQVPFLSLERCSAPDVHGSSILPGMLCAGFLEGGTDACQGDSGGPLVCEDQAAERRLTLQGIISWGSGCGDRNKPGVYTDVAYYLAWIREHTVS
Procedure: (§3) Binding of β₂GPI was assessed with monoclonal antibody 2B2¹³.
(§4) C. […] D. Western blot incubated with anti-human factor XII antibody. […] Eluted fractions are analyzed on Western blot after SDS-PA electrophoresis. […] The molecular mass of factor XII is 80 kDa. […] Anti-β₂GPI auto-antibodies were purified from plasma of patients with the auto-immune disease Anti-phospholipid syndrome. […] Signals are corrected for background fluorescence of CL, DXS, ThT and buffer.

[10] = biological target: B3; assay: ELISA, tPA coated, β2GPI concentration series, antibody 2B2
Procedure: as §3, §4

[11] = biological target: B3; assay: ELISA, tPA immobilized, β2GPI concentration series
Procedure: as §3, §4

[12] = biological target: T6, factor XII purified from human plasma; assay: ELISA, factor XII immobilized, β2GPI concentration series
Procedure: as §3, §4

[13] = biological target: B1; assay: SPR (Biacore), tPA F immobilized on CM5 chip
Procedure: as §1

[14] = biological target: B4; assay: SPR (Biacore), tPA F immobilized on CM5 chip
Procedure: as §1

[15] = biological target: B1; assay: SPR (Biacore), HGFA F immobilized on CM5 chip
Procedure: as §1

[16] = biological target: B4; assay: SPR (Biacore), HGFA F immobilized on CM5 chip
Procedure: as §1

Work on B1 yielded an EC50 [1] of 800 nM.

For B2, the Kd [2] was 216 nM and the “tPA activation, Max. Activation (%)” value [3] was 0%.

In the case of B3, the binding result [4] is reported as “binds”, the “Bmax (OD450 nm)” value [5] is reported as 1.23 OD450 nm and the “Bmax (OD450 nm)” value [6] is reported as 3.62 OD450 nm. The “Bmax (OD450 nm)” value [7] was 0.533 OD450 nm and the “Bmax (OD450 nm)” value [8] was 0.756 OD450 nm.

B4 gave a Kd [9] of 20 nM, an EC50 [1] of 165 nM and a Kd [10] of 51 nM. The Kd [11] was 2.3 µg/mL and the Kd [12] was 0.9 µg/mL.

B5: chemically synthesized F domain of tPA (tPA F) (other, human)
chain: VICRDEKTQMIYQQHQSWLRPVLRSNRVEYCWCNSGRAQCHSVK
modifications: cysteine pairing not given here; also: added C-terminal Lys acetylated or biotinylated
notes: domain: F domain; Immobilized on the second Biacore chip; also called tPA F domain
B5: no binding (tested: 0-800 nM) [13]; no binding (tested: 0-300 nM) [14].

B6: chemically synthesized F domain of hepatocyte growth factor activator (HGFA F) (other)
chain: EKCFDETRYEYLEGGDRWARVRQGHVEQCECFGGRTWCEGTK
modifications: added carboxy-terminal lysine residue is acetylated
notes: domain: F domain; Made by native chemical ligation of two peptides; also called HGFA F domain
B6: no binding (tested: 0-800 nM) [15]; no binding (tested: 0-300 nM) [16].
